Data on 1 substance can be found in paper PMC11484706.

What all share (assay): PU-beads capture (affinity pull-down), immunoblot band quantification
Holding throughout (details): HEK293 cells transfected with the mutant; n = 3; input = 2% of protein incubated with the beads; read off a plot
(In general: In western blotting, separated proteins are transferred to a membrane and probed.)

Experiment [1] concerns the target PU-beads (PU-H71 epichaperome affinity probe).
Another experiment deals with HOP (endogenous, HEK293).
Experiment [2] concerns the target AHA1 (endogenous, HEK293).
In experiment [3] the target is HSP110 (endogenous, HEK293).

In the case of mCherry WT HSP90β (HEK293) S226A; S255A, the response (normalized to MDA-MB-468) in experiment [1] is 0.65; with HOP (endogenous, HEK293) it was 0.25; in experiment [2] it was 0.65; in experiment [3], 0.63.
